Experimental data taken from patent US20140087995A1 (published 2014).
Numbered stars: 1 amine (or outer) side, 2 acyl side, 3 side chain; on linkers, the order of the positions; unused ones are H or OH. Bridge positions count the residues as written; N and C are the ends. Side chains are listed from the residue outwards. Ends that are not written are not given here. * marks the point of attachment. C20 diacid = O=C(O)CCCCCCCCCCCCCCCCCCC(=O)*; γGlu = O=C(O)[C@H](CCC(=O)[*:2])N[*:1]; AEEA = NCCOCCOCC(=O)O

Key:
[1] = target: T1, human amylin receptor (amylin 3(a) receptor: human calcitonin receptor co-expressed with RAMP-3) (human, UniProt P30988 25-474; O60896 24-148, limits assumed); experiment: cell-based or functional assay
T1 sequence (looked up) 1: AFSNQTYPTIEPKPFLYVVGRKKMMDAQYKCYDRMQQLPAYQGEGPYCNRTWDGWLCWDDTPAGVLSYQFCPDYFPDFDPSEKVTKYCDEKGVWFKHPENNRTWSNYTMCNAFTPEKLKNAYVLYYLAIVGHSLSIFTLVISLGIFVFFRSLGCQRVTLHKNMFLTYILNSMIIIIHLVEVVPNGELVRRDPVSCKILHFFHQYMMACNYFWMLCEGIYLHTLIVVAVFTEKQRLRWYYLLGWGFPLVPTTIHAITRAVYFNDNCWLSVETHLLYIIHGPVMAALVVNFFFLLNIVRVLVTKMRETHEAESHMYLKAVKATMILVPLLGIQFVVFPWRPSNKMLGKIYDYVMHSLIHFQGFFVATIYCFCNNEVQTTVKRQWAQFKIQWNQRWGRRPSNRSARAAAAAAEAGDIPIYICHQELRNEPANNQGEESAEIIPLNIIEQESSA
T1 sequence (looked up) 2: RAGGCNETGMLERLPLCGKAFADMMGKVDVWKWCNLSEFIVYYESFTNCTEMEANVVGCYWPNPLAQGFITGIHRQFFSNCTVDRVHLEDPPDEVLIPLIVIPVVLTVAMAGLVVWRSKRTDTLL

[2] = target: T2, human calcitonin receptor (human, UniProt P30988 25-474); experiment: cell-based or functional assay
T2 sequence (looked up): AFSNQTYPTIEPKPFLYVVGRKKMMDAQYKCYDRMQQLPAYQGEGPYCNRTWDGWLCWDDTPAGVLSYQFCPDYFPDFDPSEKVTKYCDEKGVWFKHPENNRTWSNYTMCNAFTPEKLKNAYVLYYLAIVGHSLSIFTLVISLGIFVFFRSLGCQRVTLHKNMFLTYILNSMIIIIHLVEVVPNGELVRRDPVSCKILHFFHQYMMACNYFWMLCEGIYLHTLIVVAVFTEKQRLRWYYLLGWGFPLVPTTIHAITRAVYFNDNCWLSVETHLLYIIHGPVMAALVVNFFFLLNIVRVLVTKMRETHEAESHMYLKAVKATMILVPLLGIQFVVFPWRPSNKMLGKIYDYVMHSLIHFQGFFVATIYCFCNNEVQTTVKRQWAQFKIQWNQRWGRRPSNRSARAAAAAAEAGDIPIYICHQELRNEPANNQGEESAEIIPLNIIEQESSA

Binder	hAmylin-R funct. EC50 [1] [nM]	hCTR funct. EC50 [2] [nM]
K([AEEA-γGlu-C20 diacid])CNTATCATQRLANFLRHSSPNFGAIPSSTNVGHNTY-NH2 (disulfide 2-7; N-terminus assumed; SMILES CC[C@H](C)[C@H](NC(=O)[C@H](C)NC(=O)CNC(=O)[C@H](Cc1ccccc1)NC(=O)[C@H](CC(N)=O)NC(=O)[C@@H]1CCCN1C(=O)[C@H](CO)NC(=O)[C@H](CO)NC(=O)[C@H](Cc1c[nH]cn1)NC(=O)[C@H](CCCNC(=N)N)NC(=O)[C@H](CC(C)C)NC(=O)[C@H](Cc1ccccc1)NC(=O)[C@H](CC(N)=O)NC(=O)[C@H](C)NC(=O)[C@H](CC(C)C)NC(=O)[C@H](CCCNC(=N)N)NC(=O)[C@H](CCC(N)=O)NC(=O)[C@@H](NC(=O)[C@H](C)NC(=O)[C@@H]1CSSC[C@H](NC(=O)[C@@H](N)CCCCNC(=O)COCCOCCNC(=O)CC[C@H](NC(=O)CCCCCCCCCCCCCCCCCCC(=O)O)C(=O)O)C(=O)N[C@@H](CC(N)=O)C(=O)N[C@@H]([C@@H](C)O)C(=O)N[C@@H](C)C(=O)N[C@@H]([C@@H](C)O)C(=O)N1)[C@@H](C)O)C(=O)N1CCC[C@H]1C(=O)N[C@@H](CO)C(=O)N[C@@H](CO)C(=O)N[C@H](C(=O)N[C@@H](CC(N)=O)C(=O)N[C@H](C(=O)NCC(=O)N[C@@H](Cc1c[nH]cn1)C(=O)N[C@@H](CC(N)=O)C(=O)N[C@H](C(=O)N[C@@H](Cc1ccc(O)cc1)C(N)=O)[C@@H](C)O)C(C)C)[C@@H](C)O, also called compound 76)	0.297	7.37
K([AEEA-γGlu-C20 diacid])CNTATCATQRLANFLRHSSPNFGAIPSPTNVGPNTY-NH2 (disulfide 2-7; N-terminus assumed; SMILES CC[C@H](C)[C@H](NC(=O)[C@H](C)NC(=O)CNC(=O)[C@H](Cc1ccccc1)NC(=O)[C@H](CC(N)=O)NC(=O)[C@@H]1CCCN1C(=O)[C@H](CO)NC(=O)[C@H](CO)NC(=O)[C@H](Cc1c[nH]cn1)NC(=O)[C@H](CCCNC(=N)N)NC(=O)[C@H](CC(C)C)NC(=O)[C@H](Cc1ccccc1)NC(=O)[C@H](CC(N)=O)NC(=O)[C@H](C)NC(=O)[C@H](CC(C)C)NC(=O)[C@H](CCCNC(=N)N)NC(=O)[C@H](CCC(N)=O)NC(=O)[C@@H](NC(=O)[C@H](C)NC(=O)[C@@H]1CSSC[C@H](NC(=O)[C@@H](N)CCCCNC(=O)COCCOCCNC(=O)CC[C@H](NC(=O)CCCCCCCCCCCCCCCCCCC(=O)O)C(=O)O)C(=O)N[C@@H](CC(N)=O)C(=O)N[C@@H]([C@@H](C)O)C(=O)N[C@@H](C)C(=O)N[C@@H]([C@@H](C)O)C(=O)N1)[C@@H](C)O)C(=O)N1CCC[C@H]1C(=O)N[C@@H](CO)C(=O)N1CCC[C@H]1C(=O)N[C@H](C(=O)N[C@@H](CC(N)=O)C(=O)N[C@H](C(=O)NCC(=O)N1CCC[C@H]1C(=O)N[C@@H](CC(N)=O)C(=O)N[C@H](C(=O)N[C@@H](Cc1ccc(O)cc1)C(N)=O)[C@@H](C)O)C(C)C)[C@@H](C)O, also called compound 56)	0.102	0.506
K([AEEA-γGlu-C20 diacid])CNTATCATQRLANFLRHSSPNFGAIPPSTNVGPNTY-NH2 (disulfide 2-7; N-terminus assumed; SMILES CC[C@H](C)[C@H](NC(=O)[C@H](C)NC(=O)CNC(=O)[C@H](Cc1ccccc1)NC(=O)[C@H](CC(N)=O)NC(=O)[C@@H]1CCCN1C(=O)[C@H](CO)NC(=O)[C@H](CO)NC(=O)[C@H](Cc1c[nH]cn1)NC(=O)[C@H](CCCNC(=N)N)NC(=O)[C@H](CC(C)C)NC(=O)[C@H](Cc1ccccc1)NC(=O)[C@H](CC(N)=O)NC(=O)[C@H](C)NC(=O)[C@H](CC(C)C)NC(=O)[C@H](CCCNC(=N)N)NC(=O)[C@H](CCC(N)=O)NC(=O)[C@@H](NC(=O)[C@H](C)NC(=O)[C@@H]1CSSC[C@H](NC(=O)[C@@H](N)CCCCNC(=O)COCCOCCNC(=O)CC[C@H](NC(=O)CCCCCCCCCCCCCCCCCCC(=O)O)C(=O)O)C(=O)N[C@@H](CC(N)=O)C(=O)N[C@@H]([C@@H](C)O)C(=O)N[C@@H](C)C(=O)N[C@@H]([C@@H](C)O)C(=O)N1)[C@@H](C)O)C(=O)N1CCC[C@H]1C(=O)N1CCC[C@H]1C(=O)N[C@@H](CO)C(=O)N[C@H](C(=O)N[C@@H](CC(N)=O)C(=O)N[C@H](C(=O)NCC(=O)N1CCC[C@H]1C(=O)N[C@@H](CC(N)=O)C(=O)N[C@H](C(=O)N[C@@H](Cc1ccc(O)cc1)C(N)=O)[C@@H](C)O)C(C)C)[C@@H](C)O, also called compound 55)	0.068	0.731
K([AEEA-γGlu-C20 diacid])CNTATCATQRLANFLRHSSPNFGAIPSSTNVGPHTY-NH2 (disulfide 2-7; N-terminus assumed; SMILES CC[C@H](C)[C@H](NC(=O)[C@H](C)NC(=O)CNC(=O)[C@H](Cc1ccccc1)NC(=O)[C@H](CC(N)=O)NC(=O)[C@@H]1CCCN1C(=O)[C@H](CO)NC(=O)[C@H](CO)NC(=O)[C@H](Cc1c[nH]cn1)NC(=O)[C@H](CCCNC(=N)N)NC(=O)[C@H](CC(C)C)NC(=O)[C@H](Cc1ccccc1)NC(=O)[C@H](CC(N)=O)NC(=O)[C@H](C)NC(=O)[C@H](CC(C)C)NC(=O)[C@H](CCCNC(=N)N)NC(=O)[C@H](CCC(N)=O)NC(=O)[C@@H](NC(=O)[C@H](C)NC(=O)[C@@H]1CSSC[C@H](NC(=O)[C@@H](N)CCCCNC(=O)COCCOCCNC(=O)CC[C@H](NC(=O)CCCCCCCCCCCCCCCCCCC(=O)O)C(=O)O)C(=O)N[C@@H](CC(N)=O)C(=O)N[C@@H]([C@@H](C)O)C(=O)N[C@@H](C)C(=O)N[C@@H]([C@@H](C)O)C(=O)N1)[C@@H](C)O)C(=O)N1CCC[C@H]1C(=O)N[C@@H](CO)C(=O)N[C@@H](CO)C(=O)N[C@H](C(=O)N[C@@H](CC(N)=O)C(=O)N[C@H](C(=O)NCC(=O)N1CCC[C@H]1C(=O)N[C@@H](Cc1c[nH]cn1)C(=O)N[C@H](C(=O)N[C@@H](Cc1ccc(O)cc1)C(N)=O)[C@@H](C)O)C(C)C)[C@@H](C)O, also called compound 58)	0.047	1.03
K([AEEA-γGlu-C20 diacid])CNTATCATQRLANFLRHSSPNFGAIPSSTPVGSHTY-NH2 (disulfide 2-7; N-terminus assumed; SMILES CC[C@H](C)[C@H](NC(=O)[C@H](C)NC(=O)CNC(=O)[C@H](Cc1ccccc1)NC(=O)[C@H](CC(N)=O)NC(=O)[C@@H]1CCCN1C(=O)[C@H](CO)NC(=O)[C@H](CO)NC(=O)[C@H](Cc1c[nH]cn1)NC(=O)[C@H](CCCNC(=N)N)NC(=O)[C@H](CC(C)C)NC(=O)[C@H](Cc1ccccc1)NC(=O)[C@H](CC(N)=O)NC(=O)[C@H](C)NC(=O)[C@H](CC(C)C)NC(=O)[C@H](CCCNC(=N)N)NC(=O)[C@H](CCC(N)=O)NC(=O)[C@@H](NC(=O)[C@H](C)NC(=O)[C@@H]1CSSC[C@H](NC(=O)[C@@H](N)CCCCNC(=O)COCCOCCNC(=O)CC[C@H](NC(=O)CCCCCCCCCCCCCCCCCCC(=O)O)C(=O)O)C(=O)N[C@@H](CC(N)=O)C(=O)N[C@@H]([C@@H](C)O)C(=O)N[C@@H](C)C(=O)N[C@@H]([C@@H](C)O)C(=O)N1)[C@@H](C)O)C(=O)N1CCC[C@H]1C(=O)N[C@@H](CO)C(=O)N[C@@H](CO)C(=O)N[C@H](C(=O)N1CCC[C@H]1C(=O)N[C@H](C(=O)NCC(=O)N[C@@H](CO)C(=O)N[C@@H](Cc1c[nH]cn1)C(=O)N[C@H](C(=O)N[C@@H](Cc1ccc(O)cc1)C(N)=O)[C@@H](C)O)C(C)C)[C@@H](C)O, also called compound 57)	0.089	3.12
